The assay addresses HLA-A*02:01 (Homo sapiens, UniProt P04439, D140Y/D185E/D98H/E176V/E277Q/G131W/G231S/I119V/I121R/I166T/I218V/L300P/L318F/N151K/N90K/P208A/P217A/Q86G/Q94H/R138H/R169H/T345S). The experiment in a line: MHC binding assay: UV-ligand exchange with β2m ELISA (peptide exchange yield). The note with it: MHC class I binding score; binding to HLA-A*02:01 ranged by peptide exchange yield (UV-ligand exchange, β2m ELISA). An excerpt:
Candidate peptides for T cell based therapies according to the present invention were further tested for their MHC binding capacity (affinity). The individual peptide-MHC complexes were produced by UV-ligand exchange, where a UV-sensitive peptide is cleaved upon UV-irradiation, and exchanged with the peptide of interest as analyzed. Only peptide candidates that can effectively bind and stabilize the peptide-receptive MHC molecules prevent dissociation of the MHC complexes. To determine the yield of the exchange reaction, an ELISA was performed based on the detection of the light chain (β2m) of stabilized MHC complexes. The assay was performed as generally described in Rodenko et al. (Rodenko et al., 2006).
96 well MAXISorp plates (NUNC) were coated over night with 2 ug/ml streptavidin in PBS at room temperature, washed 4× and blocked for 1 h at 37° C. in 2% BSA containing blocking buffer. Refolded HLA-A*02:01/MLA-001 monomers served as standards, covering the range of 15-500 ng/ml. Peptide-MHC monomers of the UV-exchange reaction were diluted 100 fold in blocking buffer. Samples were incubated for 1 h at 37° C., washed four times, incubated with 2 ug/ml HRP conjugated anti-β2m for 1 h at 37° C., washed again and detected with TMB solution that is stopped with […]. Absorption was measured at 450 nm. Candidate peptides that show a high exchange yield (preferably higher than 50%, most preferred higher than 75%) are generally preferred for a generation and production of antibodies or fragments thereof, and/or T cell receptors or fragments thereof, as they show sufficient avidity to the MHC molecules and prevent dissociation of the MHC complexes.
Regarding “137 (NLIKTVIKL; listed as Homo sapiens) [compound 137]”, the “Peptide Exchange” value is on record as “″+++″ (≥50 = +++)”.
The entry for “121 (RLYEITIEV; listed as Homo sapiens) [compound 121]” is “″++++″ (≥75% = ++++)”; for “309 (ILYGTQFVL; listed as Homo sapiens) [compound 309]” it is “″+++″ (≥50 = +++)”; for “297 (FLVEPQEDTRL; listed as Homo sapiens) [compound 297]” it is “″+++″ (≥50 = +++)”.
Then “106 (FMASHLDYL; listed as Homo sapiens) [compound 106]”, with “″+++″ (≥50 = +++)”; and “269 (TLTDEQFLV; listed as Homo sapiens) [compound 269]”, with “″++″ (≥20% = ++)”.
As to “170 (TLTFRVETV; listed as Homo sapiens) [compound 170]”, the “Peptide Exchange” value is listed as “″+++″ (≥50 = +++)”.
Then “190 (VVMGTVPRL; listed as Homo sapiens) [compound 190]”, with “″+++″ (≥50 = +++)”; and “357 (FLIQEIKTL; listed as Homo sapiens) [compound 357]”, with “″+++″ (≥50 = +++)”; and “164 (SVHKGFAFV; listed as Homo sapiens) [compound 164]”, with “″+++″ (≥50 = +++)”.
The entry for “275 (VLLFIEHSV; listed as Homo sapiens) [compound 275]” is “″+++″ (≥50 = +++)”.
Then “362 (ILTELGGFEV; listed as Homo sapiens) [compound 362]”, with “″+++″ (≥50 = +++)”; and “216 (WLAGDVPAA; listed as Homo sapiens) [compound 216]”, with “″+++″ (≥50 = +++)”; and “156 (SLNIGDVQL; listed as Homo sapiens) [compound 156]”, with “″+++″ (≥50 = +++)”.
As for “167 (TLDTSKLYV; listed as Homo sapiens) [compound 167]”, the “Peptide Exchange” value was “″+++″ (≥50 = +++)”.
The entry for “226 (AMNISVPQV; listed as Homo sapiens) [compound 226]” is “″+++″ (≥50 = +++)”; for “62 (GIIDGSPRL; listed as Homo sapiens) [compound 62]” it is “″+++″ (≥50 = +++)”.
Then “42 (FLEEGGVVTV; listed as Homo sapiens) [compound 42]”, with “″+++″ (≥50 = +++)”; and “348 (ALAKPPVVSV; listed as Homo sapiens) [compound 348]”, with “″+++″ (≥50 = +++)”; and “11 (ALFTFSPLTV; listed as Homo sapiens) [compound 11]”, with “″+++″ (≥50 = +++)”.
The entry for “260 (SLDDVEGMSV; listed as Homo sapiens) [compound 260]” is “″+++″ (≥50 = +++)”.
In the case of “253 (NLWSVDGEVTV; listed as Homo sapiens) [compound 253]”, the “Peptide Exchange” value is on record as “″+++″ (≥50 = +++)”.
Then “193 (YLDLSNNRL; listed as Homo sapiens) [compound 193]”, with “″+++″ (≥50 = +++)”; and “371 (SLADDSVLERL; listed as Homo sapiens) [compound 371]”, with “″+++″ (≥50 = +++)”.
Consider “125 (LLLEIGEVGKLFV; listed as Homo sapiens) [compound 125]”, for which the “Peptide Exchange” value is listed as “″+++″ (≥50 = +++)”.
Then “280 (YTLDSLYWSV; listed as Homo sapiens) [compound 280]”, with “″+++″ (≥50 = +++)”.
Then “373 (TLLADQGEIRV; listed as Homo sapiens) [compound 373]”, with “″++″ (≥20% = ++)”.
The entry for “65 (GLDDMKANL; listed as Homo sapiens) [compound 65]” is “″++″ (≥20% = ++)”.
As for “46 (YIIDSAQAV; listed as Homo sapiens) [compound 46]”, the “Peptide Exchange” value is on record as “″+++″ (≥50 = +++)”.
Consider “335 (YLYQEQYFI; listed as Homo sapiens) [compound 335]”, for which the “Peptide Exchange” value is “″+++″ (≥50 = +++)”.
Then “237 (GLQENLDVVV; listed as Homo sapiens) [compound 237]”, with “″++++″ (≥75% = ++++)”.
The entry for “228 (FLGGLSPGV; listed as Homo sapiens) [compound 228]” is “″+++″ (≥50 = +++)”; for “59 (FVFGDENGTVSL; listed as Homo sapiens) [compound 59]” it is “″+++″ (≥50 = +++)”.
Then “132 (LVYEAIIMV; listed as Homo sapiens) [compound 132]”, with “″+++″ (≥50 = +++)”; and “13 (VVDGMPPGV; listed as Homo sapiens) [compound 13]”, with “″+++″ (≥50 = +++)”.
As for “272 (VLDELPPLI; listed as Homo sapiens) [compound 272]”, the “Peptide Exchange” value is on record as “″+++″ (≥50 = +++)”.
With “16 (ALPGGAAVAAV; listed as Homo sapiens) [compound 16]”, the “Peptide Exchange” value is given as “″++++″ (≥75% = ++++)”.
With “293 (ALDIMIPMV; listed as Homo sapiens) [compound 293]”, the “Peptide Exchange” value is reported as “″+++″ (≥50 = +++)”.
Then “155 (SLMLEVPAL; listed as Homo sapiens) [compound 155]”, with “″+++″ (≥50 = +++)”; and “251 (LLYDNVPGA; listed as Homo sapiens) [compound 251]”, with “″+++″ (≥50 = +++)”.
Then “194 (YLDNVLAEL; listed as Homo sapiens) [compound 194]”, with “″++++″ (≥75% = ++++)”; and “45 (FLPELPADLEA; listed as Homo sapiens) [compound 45]”, with “″+++″ (≥50 = +++)”; and “108 (VIYTLIHYI; listed as Homo sapiens) [compound 108]”, with “″+++″ (≥50 = +++)”.
Then “285 (GVATAGCVNEV; listed as Homo sapiens) [compound 285]”, with “″++++″ (≥75% = ++++)”.
Turning to “134 (MLLEHGITLV; listed as Homo sapiens) [compound 134]”, the “Peptide Exchange” value is listed as “″++++″ (≥75% = ++++)”.
Then “244 (ILQALAVHL; listed as Homo sapiens) [compound 244]”, with “″+++″ (≥50 = +++)”.
Turning to “117 (LLILENILL; listed as Homo sapiens) [compound 117]”, the “Peptide Exchange” value is given as “″+++″ (≥50 = +++)”.
Regarding “283 (ILQPMDIHV; listed as Homo sapiens) [compound 283]”, the “Peptide Exchange” value is reported as “″+++″ (≥50 = +++)”.
Then “206 (HMQDVRVLL; listed as Homo sapiens) [compound 206]”, with “″+++″ (≥50 = +++)”; and “41 (FLDPSLDPLL; listed as Homo sapiens) [compound 41]”, with “″+++″ (≥50 = +++)”; and “318 (NLQVTQPTV; listed as Homo sapiens) [compound 318]”, with “″+++″ (≥50 = +++)”.
The entry for “215 (VMQDIVYKL; listed as Homo sapiens) [compound 215]” is “″+++″ (≥50 = +++)”; for “184 (VLSHNLYTV; listed as Homo sapiens) [compound 184]” it is “″+++″ (≥50 = +++)”.
Regarding “23 (ALYLTEVFL; listed as Homo sapiens) [compound 23]”, the “Peptide Exchange” value was “″++++″ (≥75% = ++++)”.
Then “295 (ALLQKLQQL; listed as Homo sapiens) [compound 295]”, with “″+++″ (≥50 = +++)”.
Then “355 (FIWPMLIHI; listed as Homo sapiens) [compound 355]”, with “″+++″ (≥50 = +++)”; and “58 (YIQQGIFSV; listed as Homo sapiens) [compound 58]”, with “″+++″ (≥50 = +++)”.
Consider “326 (VLAFLVHEL; listed as Homo sapiens) [compound 326]”, for which the “Peptide Exchange” value is listed as “″++++″ (≥75% = ++++)”.
Then “225 (ILQERELLPV; listed as Homo sapiens) [compound 225]”, with “″+++″ (≥50 = +++)”; and “188 (VMGDIPAAV; listed as Homo sapiens) [compound 188]”, with “″++″ (≥20% = ++)”.
Then “205 (GLSQANFTL; listed as Homo sapiens) [compound 205]”, with “″+++″ (≥50 = +++)”.
Then “182 (VLLSVPGPPV; listed as Homo sapiens) [compound 182]”, with “″+++″ (≥50 = +++)”; and “214 (RLQELTEKL; listed as Homo sapiens) [compound 214]”, with “″+++″ (≥50 = +++)”; and “92 (ILEPLNPLL; listed as Homo sapiens) [compound 92]”, with “″+++″ (≥50 = +++)”.

Source of the values: patent publication US10117916B2, “Peptides and combination of peptides for use in immunotherapy against CLL and other cancers” (immatics biotechnologies GmbH, priority 2015, dated 2018).
